The labels stand for the following.
T1: TNFR1 (Homo sapiens, UniProt P19438)
T1 chain: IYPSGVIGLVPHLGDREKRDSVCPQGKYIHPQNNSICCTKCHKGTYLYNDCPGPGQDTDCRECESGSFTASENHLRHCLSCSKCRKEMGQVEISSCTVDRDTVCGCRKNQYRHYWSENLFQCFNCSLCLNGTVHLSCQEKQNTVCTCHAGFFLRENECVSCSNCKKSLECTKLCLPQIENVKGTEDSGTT

B1: F63E (designed binder)
chain: MTLQELLREEALRRAEAEAFRYALELLAEKFPEQKEYLLDLAEEIESQIRSLSGVDVEDVRKELDKEWAWVKELLAEHPAELAEVEAARAARLAELRAEVEAKVAA
B2: H78G (designed binder)
chain: MTLQELLREEALRRAEAEAFRYALELLAEKFPEQKEYLLDLAEEIESQIRSLSGVDVEDVRKFLDKEWAWVKELLAEGPAELAEVEAARAARLAELRAEVEAKVAA
B3: L52W (designed binder)
chain: MTLQELLREEALRRAEAEAFRYALELLAEKFPEQKEYLLDLAEEIESQIRSWSGVDVEDVRKFLDKEWAWVKELLAEHPAELAEVEAARAARLAELRAEVEAKVAA
B4: Y22P (designed binder)
chain: MTLQELLREEALRRAEAEAFRPALELLAEKFPEQKEYLLDLAEEIESQIRSLSGVDVEDVRKFLDKEWAWVKELLAEHPAELAEVEAARAARLAELRAEVEAKVAA
B5: D40F (designed binder)
chain: MTLQELLREEALRRAEAEAFRYALELLAEKFPEQKEYLLFLAEEIESQIRSLSGVDVEDVRKFLDKEWAWVKELLAEHPAELAEVEAARAARLAELRAEVEAKVAA
B6: Q48T (designed binder)
chain: MTLQELLREEALRRAEAEAFRYALELLAEKFPEQKEYLLDLAEEIESTIRSLSGVDVEDVRKFLDKEWAWVKELLAEHPAELAEVEAARAARLAELRAEVEAKVAA
B7: D56L (designed binder)
chain: MTLQELLREEALRRAEAEAFRYALELLAEKFPEQKEYLLDLAEEIESQIRSLSGVLVEDVRKFLDKEWAWVKELLAEHPAELAEVEAARAARLAELRAEVEAKVAA
B8: E43A (designed binder)
chain: MTLQELLREEALRRAEAEAFRYALELLAEKFPEQKEYLLDLAAEIESQIRSLSGVDVEDVRKFLDKEWAWVKELLAEHPAELAEVEAARAARLAELRAEVEAKVAA
B9: E77C (designed binder)
chain: MTLQELLREEALRRAEAEAFRYALELLAEKFPEQKEYLLDLAEEIESQIRSLSGVDVEDVRKFLDKEWAWVKELLACHPAELAEVEAARAARLAELRAEVEAKVAA
B10: R89D (designed binder)
chain: MTLQELLREEALRRAEAEAFRYALELLAEKFPEQKEYLLDLAEEIESQIRSLSGVDVEDVRKFLDKEWAWVKELLAEHPAELAEVEAADAARLAELRAEVEAKVAA
B11: L74G (designed binder)
chain: MTLQELLREEALRRAEAEAFRYALELLAEKFPEQKEYLLDLAEEIESQIRSLSGVDVEDVRKFLDKEWAWVKEGLAEHPAELAEVEAARAARLAELRAEVEAKVAA
B12: A102M (designed binder)
chain: MTLQELLREEALRRAEAEAFRYALELLAEKFPEQKEYLLDLAEEIESQIRSLSGVDVEDVRKFLDKEWAWVKELLAEHPAELAEVEAARAARLAELRAEVEMKVAA
B13: A105V (designed binder)
chain: MTLQELLREEALRRAEAEAFRYALELLAEKFPEQKEYLLDLAEEIESQIRSLSGVDVEDVRKFLDKEWAWVKELLAEHPAELAEVEAARAARLAELRAEVEAKVVA
B14: E67W (designed binder)
chain: MTLQELLREEALRRAEAEAFRYALELLAEKFPEQKEYLLDLAEEIESQIRSLSGVDVEDVRKFLDKWWAWVKELLAEHPAELAEVEAARAARLAELRAEVEAKVAA
B15: L3I (designed binder)
chain: MTIQELLREEALRRAEAEAFRYALELLAEKFPEQKEYLLDLAEEIESQIRSLSGVDVEDVRKFLDKEWAWVKELLAEHPAELAEVEAARAARLAELRAEVEAKVAA
B16: K30Q (designed binder)
chain: MTLQELLREEALRRAEAEAFRYALELLAEQFPEQKEYLLDLAEEIESQIRSLSGVDVEDVRKFLDKEWAWVKELLAEHPAELAEVEAARAARLAELRAEVEAKVAA
B17: P32L (designed binder)
chain: MTLQELLREEALRRAEAEAFRYALELLAEKFLEQKEYLLDLAEEIESQIRSLSGVDVEDVRKFLDKEWAWVKELLAEHPAELAEVEAARAARLAELRAEVEAKVAA
B18: L96I (designed binder)
chain: MTLQELLREEALRRAEAEAFRYALELLAEKFPEQKEYLLDLAEEIESQIRSLSGVDVEDVRKFLDKEWAWVKELLAEHPAELAEVEAARAARLAEIRAEVEAKVAA
B19: I45F (designed binder)
chain: MTLQELLREEALRRAEAEAFRYALELLAEKFPEQKEYLLDLAEEFESQIRSLSGVDVEDVRKFLDKEWAWVKELLAEHPAELAEVEAARAARLAELRAEVEAKVAA
B20: Q34D (designed binder)
chain: MTLQELLREEALRRAEAEAFRYALELLAEKFPEDKEYLLDLAEEIESQIRSLSGVDVEDVRKFLDKEWAWVKELLAEHPAELAEVEAARAARLAELRAEVEAKVAA
B21: Y37G (designed binder)
chain: MTLQELLREEALRRAEAEAFRYALELLAEKFPEQKEGLLDLAEEIESQIRSLSGVDVEDVRKFLDKEWAWVKELLAEHPAELAEVEAARAARLAELRAEVEAKVAA
B22: R61M (designed binder)
chain: MTLQELLREEALRRAEAEAFRYALELLAEKFPEQKEYLLDLAEEIESQIRSLSGVDVEDVMKFLDKEWAWVKELLAEHPAELAEVEAARAARLAELRAEVEAKVAA
B23: E5H (designed binder)
chain: MTLQHLLREEALRRAEAEAFRYALELLAEKFPEQKEYLLDLAEEIESQIRSLSGVDVEDVRKFLDKEWAWVKELLAEHPAELAEVEAARAARLAELRAEVEAKVAA
B24: E44G (designed binder)
chain: MTLQELLREEALRRAEAEAFRYALELLAEKFPEQKEYLLDLAEGIESQIRSLSGVDVEDVRKFLDKEWAWVKELLAEHPAELAEVEAARAARLAELRAEVEAKVAA
B25: L39F (designed binder)
chain: MTLQELLREEALRRAEAEAFRYALELLAEKFPEQKEYLFDLAEEIESQIRSLSGVDVEDVRKFLDKEWAWVKELLAEHPAELAEVEAARAARLAELRAEVEAKVAA
B26: D65W (designed binder)
chain: MTLQELLREEALRRAEAEAFRYALELLAEKFPEQKEYLLDLAEEIESQIRSLSGVDVEDVRKFLWKEWAWVKELLAEHPAELAEVEAARAARLAELRAEVEAKVAA
B27: A28P (designed binder)
chain: MTLQELLREEALRRAEAEAFRYALELLPEKFPEQKEYLLDLAEEIESQIRSLSGVDVEDVRKFLDKEWAWVKELLAEHPAELAEVEAARAARLAELRAEVEAKVAA
B28: E9P (designed binder)
chain: MTLQELLRPEALRRAEAEAFRYALELLAEKFPEQKEYLLDLAEEIESQIRSLSGVDVEDVRKFLDKEWAWVKELLAEHPAELAEVEAARAARLAELRAEVEAKVAA
B29: L41Q (designed binder)
chain: MTLQELLREEALRRAEAEAFRYALELLAEKFPEQKEYLLDQAEEIESQIRSLSGVDVEDVRKFLDKEWAWVKELLAEHPAELAEVEAARAARLAELRAEVEAKVAA
B30: R92M (designed binder)
chain: MTLQELLREEALRRAEAEAFRYALELLAEKFPEQKEYLLDLAEEIESQIRSLSGVDVEDVRKFLDKEWAWVKELLAEHPAELAEVEAARAAMLAELRAEVEAKVAA
B31: A98F (designed binder)
chain: MTLQELLREEALRRAEAEAFRYALELLAEKFPEQKEYLLDLAEEIESQIRSLSGVDVEDVRKFLDKEWAWVKELLAEHPAELAEVEAARAARLAELRFEVEAKVAA
B32: S51A (designed binder)
chain: MTLQELLREEALRRAEAEAFRYALELLAEKFPEQKEYLLDLAEEIESQIRALSGVDVEDVRKFLDKEWAWVKELLAEHPAELAEVEAARAARLAELRAEVEAKVAA
B33: R8D (designed binder)
chain: MTLQELLDEEALRRAEAEAFRYALELLAEKFPEQKEYLLDLAEEIESQIRSLSGVDVEDVRKFLDKEWAWVKELLAEHPAELAEVEAARAARLAELRAEVEAKVAA
B34: A102W (designed binder)
chain: MTLQELLREEALRRAEAEAFRYALELLAEKFPEQKEYLLDLAEEIESQIRSLSGVDVEDVRKFLDKEWAWVKELLAEHPAELAEVEAARAARLAELRAEVEWKVAA

Experimental findings from paper PMC12416549 (2024) are described below.

This assay has as its target T1, TNFR1. Put plainly: yeast display SC50.
With B1, the “apparent Kd (screen)” value turned out to be 0.593 nM.

For the molecule B2, the “apparent Kd (screen)” value was 0.593 nM.

Regarding B3, the “apparent Kd (screen)” value was 0.405 nM.

For B4, the “apparent Kd (screen)” value worked out at 4.39 nM.

Take B5: the “apparent Kd (screen)” value is 18.3 nM.

As for B6, the “apparent Kd (screen)” value was 1.54 nM.

On to B7, for which the “apparent Kd (screen)” value was found to be 2.73 nM.

B8: the “apparent Kd (screen)” value worked out at 0.79 nM.

Consider B9, for which the “apparent Kd (screen)” value worked out at 1.16 nM.

Regarding B10, the “apparent Kd (screen)” value came out at 2.48 nM.

Consider B11, for which the “apparent Kd (screen)” value turned out to be 6.43 nM.

With B12, the “apparent Kd (screen)” value is 0.718 nM.

On to B13, for which the “apparent Kd (screen)” value was 0.718 nM.

For the molecule B14, the “apparent Kd (screen)” value was 10.4 nM.

Regarding B15, the “apparent Kd (screen)” value came to 0.539 nM.

On to B16, for which the “apparent Kd (screen)” value was 0.718 nM.

Take B17: the “apparent Kd (screen)” value is 0.593 nM.

Regarding B18, the “apparent Kd (screen)” value came to 0.869 nM.

On to B19, for which the “apparent Kd (screen)” value was 3.63 nM.

In the case of B20, the “apparent Kd (screen)” value turned out to be 5.31 nM.

Consider B21, for which the “apparent Kd (screen)” value is 5.31 nM.

As to B22, the “apparent Kd (screen)” value was found to be 0.593 nM.

B23: the “apparent Kd (screen)” value was determined as 0.49 nM.

With B24, the “apparent Kd (screen)” value was found to be 20.2 nM.

Turning to B25, the “apparent Kd (screen)” value was found to be 0.189 nM.

B26: the “apparent Kd (screen)” value was 0.79 nM.

Turning to B27, the “apparent Kd (screen)” value came to 2.05 nM.

As for B28, the “apparent Kd (screen)” value is 20.2 nM.

As for B29, the “apparent Kd (screen)” value was determined as 2.48 nM.

B30: the “apparent Kd (screen)” value is 0.593 nM.

In the case of B31, the “apparent Kd (screen)” value was found to be 0.593 nM.

Take B32: the “apparent Kd (screen)” value was found to be 0.869 nM.

Take B33: the “apparent Kd (screen)” value turned out to be 0.593 nM.

For the molecule B34, the “apparent Kd (screen)” value is 0.539 nM.
